Common to all, as to assay type: biochemical
The nature of data set [1]: PLA2 activity assay toward plasmenylcholine. As to the method:
(§1) The protein concentration was determined by the Bio-Rad protein assay, using bovine serum albumin (BSA) as standard. Protein purity was examined using 12% SDS-PAGE and Coomassie blue staining. LysoPLA activity was measured at 40° C. in the assay buier containing LysoPC, 100 mM Tris-HCl (pH 8.0) and 10 mM LMe. Cold 1-palmitoyl-sn-glycero-3-phosphorylcholine (125 μM, unless indicated otherwise) was mixed with 1-[14 C]palmitoyl-sn-glycero-3-phosphorylcholine (100,000 cpm) in a total volume of 0.5 ml. The assay was initiated by adding an aliquot of enzyme solution to the substrate mixture and incubating for the desired time. The released fatty acid was extracted by the modified Dole method and then quantified by scintillation counting. The PLA2 activity assay was carried out, using various ^14C-labeled phospholipid substrates under various conditions as given in the text. The rat brain iPLA2 was purified as described elsewhere (H. C. Yang et al., manuscript in preparation incorporated herein). Human recombinant cPLA2 was a gift from Drs. J. D. Sharp and R. M. Kramer at Lilly Laboratories. 1-[^14C]Palmitoyl-sn-glycero-3-phosphorylcholine and 1-palmitoyl-2-[1-^14C]palmitoyl-sn-glycerol-3-phosphorylcholine were purchased from Amersham. 1-Palmitoyl-2-[1-^14C]arachidonoyl-sn-glycerol-3-phosphorylcholine was purchased from DuPont-NEN. All unlabeled phospholipids were purchased from Avanti Polar Lipids. Triton X-100 (TX-100) and PIP2 were obtained from CalBiochem.
The sn-2 labeled PlsCho (plasmenylcholine or 1-O— (Z)-1P-alkenyl-2-arachidonoyl-sn-glycero-3-phosphocholine) was synthesized as follows. A total of 4 μmol [1-14C]arachidonic acid (from NEN, with specific activity […]) was diluted 10 times with cold arachidonic acid in 250 μl distilled methylene chloride (Fisher Scientific). To this 0.04 mmol p(N,N-dimethyl)amino pyridine (Aldrich) and 0.08 mmol 1,3-dicyclohexyl carbodiimide (Aldrich) were added to yield the arachidonoyl anhydride upon 1 h of stirring. Lysoplasmenylcholine (0.06 mmol, from Serdary) dissolved in 200 μl methylene chloride and 50 μl pyridine (Fisher Scienticc) was added to the arachidonoyl anhydride solution with 0.03 μmol dimethylaminopyridine and left stirring for 8 h. The reaction progress was monitored by thin layer chromatography (Merck) using a mobile phase of chloroform:methanol:triethyl amine:water (65:30:1.5:3.5), and retardation factors were 0.6 and 0.2 for PlsCho and LysoPlsCho, respectively. The separation of the product was carried out by preparative layer chromatography (Merck) in the above mobile system. The reaction yielded a total of 3.6 mg (7.7 μmol) of radiolabeled PlsCho (specific activity 0.18 μCi/μmol) by quantitative phosphate analysis.
(§2) When we first purified the mouse LysoPLA from P388D1 cells, no other enzymatic activities (PLA1, PLA2, acyltransferase, transacylase and esterase) were found. Therefore, it appears to be a LysoPL-specific LysoPLA. Similar results were obtained for the rat LysoPLA and the relative rates towards different LysoPL substrates were reported [Sugimoto et al., (1996) J. Biol. Chem. 271, 7705-11]. However, a recently sequenced rabbit enzyme that shares high sequence homology (approx. 97%) to the rat/mouse LysoPLA was reported to have both PLA2 and LysoPLA activities [Portilla, et al., […] J. Am. Soc.Nephrol. 9, 1178-86]. The specific activities, however, were only 10 nmol/min/mg for PLA2 activity and 20 nmol/min/mg for LysoPLA activity. The PLA2 activity was also reported to be selective for PlsCho substrate with arachidonic acid at the sn2 position. To determine whether hLysoPLA also expresses PLA2 activity, we have explored its ability to hydrolyze arachidonic acid labeled PlsCho as well as other phospholipid substrates under a variety of conditions.

Data set [2] in a line: PLA2 activity assay toward DPPC. The settings on record: for Activity: 100 mM Hepes. As to the method: as §1, §2
A short description of data set [3]: PLA2 activity assay toward PAPC. The following applies: for Activity: 100 mM Hepes, pH 7.5, 80 μM Ca2+, 2 mM DTT, 0.1 mg/ml BSA. As to the method: as §1, §2
A short description of data set [4]: LysoPLA activity assay (release of fatty acid from 14C-LysoPC). As to the method:
as §1
To investigate the catalytic properties of the hLy-soPLA, we first determined the specific activity of hLysoPLA as a function of substrate (1-palmitoyl LysoPC) concentration. […] There seems to be some cooperativity, since the data fit to the Hill equation (solid line in FIG. 3) with n=1.53 ? 0.08, kcat=1.34 ? 0.04 μmol/min/mg, and substrate at half-maximal saturation is 12.7±0.9 μM.
TX-100 is often used in the purification and stabilization of membrane-associated proteins. In addition, it is used to change the surface concentration of the substrate in the mixed-micelle assay for mechanistic studies. To determine the dependence of the enzyme activity on the substrate surface concentration, we measured the hLysoPLA activity under two conditions:
(1) the bulk LysoPC concentration (1.125 mM) was kept constant and the TX-100 concentration was varied (FIG. 4A);
(2) the bulk TX-100 concentration (1 mM) was kept constant and the LysoPC concentration was varied (FIG. 4B).
In addition, we have carried out detailed kinetic measurements and analysis to test the surface dilution kinetic model and results are shown in FIG. 4° C. The experimental data were fitted globally to Eq. 1 derived from the model in which hLysoPLA follows the two-step binding kinetics (Scheme 1). That is, hLysoPLA (E) binds first to the mixed-micellar surface (S) and then to the LysoPC substrate (A) presented on the surface.
[formula] [formula] Here, [LysoPC+TX-100] is the total molar concentration in the bulk solution, and {LysoPC®} is the molar fraction of the substrate on the mixed-micellar surface. Calculation of the amount of TX-100 in the micelle takes into account the amount of monomeric detergent in the solution, assuming the critical micelle concentration of TX-100 is 0.25 mM. The fitting parameter Ks represents the dissociation constant (k31/k1) for the mixed-micellar surface, Km represents the apparent Michaelis constant (=(k3+ k32)/k2) on the surface, and Vmax is the catalytic turnover rate.

[5] abbreviates: Hill equation fit, pure LysoPC (FIG. 3).
The mark [6] stands for this setting: global fit to surface dilution model, LysoPC/TX-100 mixed micelles.

B1: hLysoPLA: recombinant human brain lysophospholipase, single 25 kDa polypeptide of 230 amino acids (SEQ ID NO: 2), catalytic triad Ser-119, Asp-174, His-208 (protein, listed as Homo sapiens)
chain: MCGNNMSTPLPAIVPAARKATAAVIFLHGLGDTGHGWAEAFAGIRSSHIKYICPHAPVRPVTLNMNVAMPSWFDIIGLSPDSQEDESGIKQAAENIKALIDQEVKNGIPSNRIILGGFSQGGALSLYTALTTQQKLAGVTALSCWLPLRASLPQGPIGGANRDISILQCHGDCDPLVPLMFGSLTVEKLKTLVNPANVTFKTYEGMMHSSCQQEMMDVKQFIDKLLPPID
In the case of B1, the Activity is 0.0009 ± 0.0003 µmol/min/mg in data set [1] (PisCho sonicated vesicles (100 μM), 100 mM Tris, pH 8.0, 4 mM EGTA, 10 mM βMe); 0.0006 ± 0.0002 µmol/min/mg in data set [1] (PisCho sonicated vesicles (100 μM), 100 mM Tris, pH 8.0, 150 mM NaCl, 3 mM MgCl2, 10 mM βMe); 0.0024 ± 0.0004 µmol/min/mg in data set [1] (PisCho/TX-100 mixed micelles (100 μM:600 μM), 100 mM Hepes, pH 7.5, 10 mM βMe); <0.0001 µmol/min/mg in data set [2] (DPPC/POPS sonicated vesicles (67 μM:33 μM), pH 7.5, 5 mM EDTA or Ca2+, 1 mg/ml BSA); <0.0001 µmol/min/mg in data set [2] (DPPC/TX-100 mixed micelles (100 μM:400 μM), pH 7.5, 2 mM DTT, 5 mM EDTA); <0.0001 µmol/min/mg in data set [3] (PAPC/PIP2/TX-100 mixed micelles (97 μM:3 μM:400 μM)). In addition, the Activity was <0.0001 µmol/min/mg in data set [3] (PAPC/TX-100 mixed micelles (100 μM:400 μM)) and 1.13 ± 0.03 µmol/min/mg in data set [4] (LysoPC micelles (125 μM), 100 mM Tris, pH 8.0, 10 mM βMe). In addition, the “activity toward PlsCho substrate labeled with [14C]arachidonic acid (in words)” value in data set [1] (mixed micelles or vesicles) is “did not show any significant activity”. Also, the “PLA2 activity toward phosphatidylcholine substrates (in words)” value in data set [2] (DPPC substrates) and in data set [3] (PAPC substrates) was “no PLA2 activity was found” in each case. In addition, the Hill coefficient n in data set [4] (Hill equation fit, activity vs 1-palmitoyl LysoPC concentration, 40° C. (FIG. 3)) was determined as 1.53. Also, the kcat was found to be 1.34 µmol/min/mg in data set [4] (setting [5]); 1.6 µmol/min/mg in data set [4] (Michaelis-Menten fit, LysoPC 1.125 mM constant, TX-100 varied (FIG. 4A)); 1.7 µmol/min/mg in data set [4] (Michaelis-Menten fit, TX-100 1 mM constant, LysoPC varied (FIG. 4B)). Besides, the “substrate at half-maximal saturation” value in data set [4] (setting [5]) is 12.7 ± 0.9 µM. Also, in data set [4] (setting [6]), the “Km (apparent Michaelis constant on the surface)” value turned out to be 12.2±0.9 mol %. Also, the “Ks (dissociation constant for the mixed-micellar surface)” value in data set [4] (setting [6]) is 66 ± 7 µM. Besides, the Vmax in data set [4] (global fit to surface dilution model, LysoPC/TX-100 mixed micelles (FIG. 4C)) was found to be 1.37 ± 0.05 µmol/min/mg. The “specific activity toward palmitoyl LysoPC” value in data set [4] (purified recombinant enzyme, His-Tag removed) is “about 1.3 μmol/min/mg”.

For the origin of these results see patent publication US7294496B1, “Cloned human lysophospholipase” (The Regents of the University of California, priority 2000, dated 2007).
